We go through one molecule from patent US11180767B2, “Protease deficient filamentous fungal cells and methods of use thereof” (GLYKOS FINLAND OY, priority 2012, dated 2021).

For the experiment, the system named is tryptic and chymotryptic proteases. The experiment can be described thus: In vitro inhibitor treatment: rituximab heavy chain degradation in M44 supernatant. The format is biochemical, Trichoderma reesei. The following applies: 100 μM chymostatin or 1 mg/ml SBTI; M44 supernatant 6 mg/ml, pH 5.5. The procedure: Based on the knowledge that the heavy chain is cleaved by tryptic and chymotryptic proteases, inhibitors of these two enzyme classes were tested against antibody degradation both in vitro and in culture experiments utilizing an antibody producing T. reesei strain. The inhibitors soybean trypsin inhibitor (SBTI) and chymostatin were tested, as they have been previously shown in in vitro experiments to stabilize antibody heavy chains.
Chymostatin and SBTI were analyzed in vitro with culture supernatant. Supernatant from a fed batch fermentor culture was diluted to 6 mg/ml with sodium citrate buffer pH 5.5 (pH 5.5; 28° C.; 20 g/L spent grain extract, 60 g/L lactose). […] The strain was grown in Trichoderma minimal medium supplemented with 20 g/l spent grain extract and 60 g/l lactose at pH 5.5 and 28° C.
To this diluted supernatant 0.05 μg μl of rituximab, 100 μM chymostatin, 1 mg/ml SBTI, or a combination of both inhibitors was added in a total volume of 50 μl and sampled at 0, 1, and 19 hours to assess the early and late degradation of the rituximab antibody heavy chain. The resulting heavy chain products were analyzed by immunoblot using and anti-heavy chain AP conjugated antibody (Sigma #A3188) diluted 1:30,000 in TBST (FIG. 35). […] Additional fragments were generated after 19 hours, the two major products remained.

B1: SBTI: soybean trypsin inhibitor, trypsin and subtilisin inhibitor (protein)
chain: DFVLDNEGNPLENGGTYYILSDITAFGGIRAAPTGNERCPLTVVQSRNELDKGIGTIISSPYRIRFIAEGHPLSLKFDSFAVIMLCVGIPTEWSVVEDLPEGPAVKIGENKDAMDGWFRLERVSDDEFNNYKLVFCPQQAEDDKCGDIGISIDHDDGTRRLVVSKNKPLVVQFQKLDKESL
Take B1: the “rituximab heavy chain fragment formation” value is recorded as “inhibited the 38 kD fragment from forming”.
